In general, Kd refers to the constant that tells how readily two partners part at equilibrium.

Common to all, as to test: EMSA
On the technique in general: Mobility shift assays separate free from complexed probe on a gel.

Data set [1] relates to VP16-6ZfFLO11/F2-F1 (engineered). The conditions noted are these: Buffer, salt, pH and temperature not given (methods cited); phage ELISA with 0.125-32 nM DNA; EMSA with 5-fold dilution series of TNT-expressed protein.
The test system of data set [2] is VP64-6ZfFLO11/F2-F1 (engineered). The conditions noted are these: Buffer, salt, pH and temperature not given (methods cited); phage ELISA with 0.125-32 nM DNA; EMSA with 5-fold dilution series of TNT-expressed protein.
The test system of a further data set is Zif268 3F peptide. Particulars: calibration reference; value from ref 51; Buffer, salt, pH and temperature not given (methods cited); phage ELISA with 0.125-32 nM DNA; EMSA with 5-fold dilution series of TNT-expressed protein; cited from earlier work.

In the case of “TFLO11/F2-F1 (also called F1-F2) 31-bp oligo”, the binding signal (fold stronger than 3F rTFs) in data set [1] and in data set [2] was 10 throughout.

Take Zif268 cognate 9-bp site: the Kd with Zif268 3F peptide was 2 nM.

The values above are taken from publication PMC1939876.
